Experiments:
Assay in all cases: DTNB continuous spectrophotometric thioesterase assay
Assay type in all cases: biochemical, Escherichia coli
Conditions in all cases: pH 7.5, 25 °C
[1] = substrate: CC(C)(COP(=O)(O)OP(=O)(O)OC[C@H]1O[C@@H](n2cnc3c(N)ncnc32)[C@H](O)[C@@H]1OP(=O)(O)O)[C@@H](O)C(=O)NCCC(=O)NCCSC(=O)c1cccc(O)c1
[2] = substrate: CCCCCCCCCCCCCCCC(=O)SCCNC(=O)CCNC(=O)[C@H](O)C(C)(C)COP(=O)(O)OP(=O)(O)OC[C@H]1O[C@@H](n2cnc3c(N)ncnc32)[C@H](O)[C@@H]1OP(=O)(O)O
[3] = substrate: CC(=O)SCCNC(=O)CCNC(=O)[C@H](O)C(C)(C)COP(=O)(O)OP(=O)(O)OC[C@H]1O[C@@H](n2cnc3c(N)ncnc32)[C@H](O)[C@@H]1OP(=O)(O)O
[4] = substrate: CC(C)(COP(=O)(O)OP(=O)(O)OC[C@H]1O[C@@H](n2cnc3c(N)ncnc32)[C@H](O)[C@@H]1OP(=O)(O)O)[C@@H](O)C(=O)NCCC(=O)NCCSC(=O)c1ccc(O)cc1
[5] = substrate: CCCCCCCCCCCC(=O)SCCNC(=O)CCNC(=O)[C@H](O)C(C)(C)COP(=O)(O)OP(=O)(O)OC[C@H]1O[C@@H](n2cnc3c(N)ncnc32)[C@H](O)[C@@H]1OP(=O)(O)O
[6] = substrate: CCC(=O)SCCNC(=O)CCNC(=O)[C@H](O)C(C)(C)COP(=O)(O)OP(=O)(O)OC[C@H]1O[C@@H](n2cnc3c(N)ncnc32)[C@H](O)[C@@H]1OP(=O)(O)O
[7] = substrate: CCCCCCCCCC(=O)SCCNC(=O)CCNC(=O)[C@H](O)C(C)(C)COP(=O)(O)OP(=O)(O)OC[C@H]1O[C@@H](n2cnc3c(N)ncnc32)[C@H](O)[C@@H]1OP(=O)(O)O
[8] = substrate: CC(C)(COP(=O)(O)OP(=O)(O)OC[C@H]1O[C@@H](n2cnc3c(N)ncnc32)[C@H](O)[C@@H]1OP(=O)(O)O)[C@@H](O)C(=O)NCCC(=O)NCCSC(=O)Cc1cccc(O)c1
[9] = substrate: CCCCCC(=O)SCCNC(=O)CCNC(=O)[C@H](O)C(C)(C)COP(=O)(O)OP(=O)(O)OC[C@H]1O[C@@H](n2cnc3c(N)ncnc32)[C@H](O)[C@@H]1OP(=O)(O)O

B1: EntH (Escherichia coli K-12) (protein)
chain: MIWKRHLTLDELNATSDNTMVAHLGIVYTRLGDDVLEAEMPVDTRTHQPFGLLHGGASAALAETLGSMAGFMMTRDGQCVVGTELNATHHRPVSEGKVRGVCQPLHLGRQNQSWEIVVFDEQGRRCCTCRLGTAVLG
Km [1]: 35 ± 1 µM
kcat [1]: 1.21 ± 0.01 s⁻¹
Km [2]: 55 ± 9 µM
kcat [2]: 0.085 ± 0.004 s⁻¹
Km [3]: 800 ± 90 µM
kcat [3]: 0.0044 ± 0.0002 s⁻¹
Km [4]: 21 ± 2 µM
kcat [4]: 1.55 ± 0.05 s⁻¹
Km [5]: 45 ± 2 µM
kcat [5]: 0.0281 ± 0.0003 s⁻¹
Km [6]: 400 ± 40 µM
kcat [6]: 0.0125 ± 0.0006 s⁻¹
Km [7]: 49 ± 3 µM
kcat [7]: 0.0267 ± 0.0004 s⁻¹
Km [8]: 37 ± 1 µM
kcat [8]: 2.1 ± 0.5 s⁻¹
Km [9]: 350 ± 90 µM
kcat [9]: 0.058 ± 0.001 s⁻¹
